In paper PMC12548092, “Exploring Helical Fraying Linked to Dynamics and Catalysis in Adenylate Kinase” (Biochemistry, 2025):

Test system: Nc1ncnc2c1ncn2[C@@H]1O[C@H](COP(=O)(O)OP(=O)(O)OP(=O)(O)O)[C@@H](O)[C@H]1O
Experiment: purified protein
Details: varied substrate not named in table (text: substrates ATP and AMP)

Substance: AKeco (Escherichia coli K-12)
- Km: 110 ± 9 µM
- kcat: 360 ± 11 s⁻¹
- kcat/Km: 3.3e+06 M⁻¹ s⁻¹

Substance: AKeco (Escherichia coli K-12; E114A)
- Km: 36 ± 7 µM
- kcat: 254 s⁻¹
- kcat/Km: 7.1e+06 M⁻¹ s⁻¹
